Literature values in PMC9781680.

Biological target: GLP1 peptide (Homo sapiens) (UniProt P01275)
UniProt P01275, sequence (P01275 98-127): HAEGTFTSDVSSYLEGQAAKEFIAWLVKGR

For GLP1R (from UniProt P43220), the Kd is given as 0.5 nM.
